Key:
[1] = target: T1, p116 Jak3 (endogenous, human thymocytes) (human, UniProt P52333 1-1124, limits assumed); experiment: western blot of Lyp immunoprecipitates from anti-CD3 stimulated human thymocytes
T1 sequence (looked up): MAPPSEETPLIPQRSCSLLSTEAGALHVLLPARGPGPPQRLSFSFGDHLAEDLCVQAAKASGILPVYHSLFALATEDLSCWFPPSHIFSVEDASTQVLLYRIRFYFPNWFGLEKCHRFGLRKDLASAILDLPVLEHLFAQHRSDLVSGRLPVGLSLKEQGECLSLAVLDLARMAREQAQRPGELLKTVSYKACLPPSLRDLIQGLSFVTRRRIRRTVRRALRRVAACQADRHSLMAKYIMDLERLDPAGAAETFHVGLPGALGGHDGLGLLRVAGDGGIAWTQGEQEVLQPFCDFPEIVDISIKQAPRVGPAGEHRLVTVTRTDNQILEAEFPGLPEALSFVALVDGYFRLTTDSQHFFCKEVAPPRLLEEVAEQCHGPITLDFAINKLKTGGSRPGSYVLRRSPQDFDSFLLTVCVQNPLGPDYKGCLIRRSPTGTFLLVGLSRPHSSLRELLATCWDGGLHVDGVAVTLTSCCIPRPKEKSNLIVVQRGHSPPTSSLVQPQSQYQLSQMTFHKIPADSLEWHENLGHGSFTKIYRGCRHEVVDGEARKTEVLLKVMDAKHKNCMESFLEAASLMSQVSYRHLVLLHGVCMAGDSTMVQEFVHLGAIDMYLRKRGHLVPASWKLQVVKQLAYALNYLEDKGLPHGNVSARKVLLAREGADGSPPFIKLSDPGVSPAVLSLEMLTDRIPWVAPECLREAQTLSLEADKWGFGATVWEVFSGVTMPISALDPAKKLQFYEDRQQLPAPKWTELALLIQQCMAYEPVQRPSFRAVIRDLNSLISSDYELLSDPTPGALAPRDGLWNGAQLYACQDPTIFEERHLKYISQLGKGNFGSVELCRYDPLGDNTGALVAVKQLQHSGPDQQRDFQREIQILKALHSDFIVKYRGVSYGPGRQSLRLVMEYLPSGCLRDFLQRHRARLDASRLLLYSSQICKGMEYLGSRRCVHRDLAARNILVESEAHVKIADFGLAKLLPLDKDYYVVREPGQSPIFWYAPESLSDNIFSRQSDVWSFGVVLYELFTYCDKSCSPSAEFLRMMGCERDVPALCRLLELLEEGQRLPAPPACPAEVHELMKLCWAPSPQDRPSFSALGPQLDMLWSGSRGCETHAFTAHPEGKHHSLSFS
Procedure: (§1) (A) Lyp immunoprecipitates from thymocytes (80×10⁶ cells) stimulated with anti-CD3 were blotted with antiphsophotyrosine. […] Lyp protein loading was quantitated by anti-Lyp western blot after stripping. […] (C) Lyp1 was transfected into COS-7 cells and Cbl immunoprecipitates prepared from these and untransfected cells. Western blotting was performed with Lyp antibodies. The position of Lyp is indicted by an arrow. Cbl immunoprecipitates were also prepared and blotted with anti-phosphotyrosine (D), and then anti-Cbl after stripping.
(§2) One of the earliest events following TCR stimulation of T cells is the induction of tyrosine phosphorylation. In order to determine whether Lyp played a role in TCR signalling, human thymocytes were stimulated with anti-CD3 for various periods of time, Lyp immunoprecipitated and blotted with anti-phosphotyrosine. […] Once activated, the phosphorylation level of this protein remained constant over a period of 20 minutes. […] This interaction was also observed in the mature T cell line Jurkat (not shown) and further confirmed by transfection of Lyp1 into COS-7 cells and examining its association with the endogenous Cbl protein (FIG. 13C).

p125Fak = p125Fak (human, UniProt Q05397 2-1052, limits assumed); experiment: as above
Procedure: as §1, §2

Sequence of p125Fak (Q05397 2-1052 limits assumed): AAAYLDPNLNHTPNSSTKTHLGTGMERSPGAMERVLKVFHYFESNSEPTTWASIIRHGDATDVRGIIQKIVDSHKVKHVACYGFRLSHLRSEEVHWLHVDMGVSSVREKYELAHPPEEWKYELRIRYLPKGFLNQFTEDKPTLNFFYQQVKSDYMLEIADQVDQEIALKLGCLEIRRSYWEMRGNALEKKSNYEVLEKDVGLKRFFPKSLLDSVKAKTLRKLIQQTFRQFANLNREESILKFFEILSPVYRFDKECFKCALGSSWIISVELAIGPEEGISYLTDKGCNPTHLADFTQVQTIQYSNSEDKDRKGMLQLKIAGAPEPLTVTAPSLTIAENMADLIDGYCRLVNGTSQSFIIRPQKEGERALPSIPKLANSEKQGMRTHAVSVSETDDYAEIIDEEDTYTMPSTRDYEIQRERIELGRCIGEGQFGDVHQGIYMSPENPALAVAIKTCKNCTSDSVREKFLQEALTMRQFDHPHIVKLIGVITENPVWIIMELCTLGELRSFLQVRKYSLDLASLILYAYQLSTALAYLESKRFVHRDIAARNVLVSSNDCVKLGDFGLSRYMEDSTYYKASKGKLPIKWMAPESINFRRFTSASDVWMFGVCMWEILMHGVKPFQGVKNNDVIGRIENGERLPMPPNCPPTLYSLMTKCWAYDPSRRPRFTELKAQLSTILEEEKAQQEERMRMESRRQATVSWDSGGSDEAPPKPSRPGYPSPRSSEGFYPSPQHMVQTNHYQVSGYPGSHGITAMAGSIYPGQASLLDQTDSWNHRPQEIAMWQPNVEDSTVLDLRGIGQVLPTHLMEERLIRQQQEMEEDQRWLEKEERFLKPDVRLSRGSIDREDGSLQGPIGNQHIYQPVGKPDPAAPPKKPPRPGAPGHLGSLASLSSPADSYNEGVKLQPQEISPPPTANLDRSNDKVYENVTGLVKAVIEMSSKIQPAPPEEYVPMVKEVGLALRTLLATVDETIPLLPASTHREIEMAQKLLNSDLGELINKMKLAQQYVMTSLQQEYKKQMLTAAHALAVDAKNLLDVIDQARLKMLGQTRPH

- binding result [1]: no binding
- binding result (p125Fak): no binding
B1: Lyp1 (human lymphoid protein tyrosine phosphatase, 105 kD) (enzyme)
chain: MDQREILQKFLDEAQSKKITKEEFANEFLKLKRQSTKYKADKTYPTTVAENAKNIKKNRYKDILPYDYSRVELSLITSDEDSSYINANFIKGVYGPKAYIATQGPLSTTLLDFWRMIWEYSVLIIVMACMEYEMGKKKCERYWAEPGEMQLEFGPFSVSCEAEKRKSDYIIRTLKVKFNSETRTIYQFHYKNWPDHDVPSSIDPILELIWDVRCYQEDDSVPICIHCSAGCGRTGVICAIVDYTWMLLKDGIIPENFSVFSLIREMRTQRPSLVQTQEQYELVYNAVLELFKRQMDVIRDKHSGTESQAKHCIPEKNHTLQADSYSPNLPKSTTKAAKMMNQQRTKMEIKESSSFDFRTSEISAKEELVLHPAKSSTSFDFLELNYSFDKNADTTMKWQTKAFPIVGEPLQKHQSLDLGSLLFEGCSNSKPVNAAGRYFNSKVPITRTKSTPFELIQQRETKEVDSKENFSYLESQPHDSCFVEMQAQKVMHVSSAELNYSLPYDSKHQIRNASNVKHHDSSALGVYSYIPLVENPYFSSWPPSGTSSKMSLDLPEKQDGTVFPSSLLPTSSTSLFSYYNSHSSLSLNSPTNISSLLNQESAVLATAPRIDDEIPPPLPVRTPESFIVVEEAGEFSPNVPKSLSSAVKVKIGTSLEWGGTSEPKKFDDSVILRPSKSVKLRSPKSELHQDRSSPPPPLPERTLESFFLADEDCMQAQSIETYSTSYPDTMENSTSSKQTLKTPGKSFTRSKSLKILRNMKKSICNSCPPNKPAESVQSNNSSSFLNFGFANRFSKPKGPRNPPPTWNI
notes: also called native Lyp1; pcDNA3-Lyp1

Source: patent US20040006777A1 (HSC RESEARCH AND DEVELOPMENT LIMITED PARTNERSHIP, published 2004)
